Data published in patent publication US20220054583A1 (ANBITION S R L, published 2022).

Key:
[1] = target: human recombinant receptor VEGFR-1, seven extracellular domains fused to the Fc domain of human IgG (R&D Systems, cat No 321-FL) (human) (UniProt P17948); assay: competition ELISA, residual binding of VEGF-A (5 ng/ml) to coated VEGFR-1-Fc, peptide 25000 nM
[2] = target: human recombinant receptor VEGFR-1, seven extracellular domains fused to the Fc domain of human IgG (R&D Systems, cat No 321-FL) (human) (UniProt P17948); assay: competition ELISA, residual binding of PlGF (5 ng/ml) to coated VEGFR-1-Fc, peptide 12500 nM
[3] = target: human recombinant receptor VEGFR-1, seven extracellular domains fused to the Fc domain of human IgG (R&D Systems, cat No 321-FL) (human) (UniProt P17948); assay: competition ELISA, residual binding of VEGF-A (5 ng/ml) to coated VEGFR-1-Fc, peptide 1560 nM
[4] = target: human recombinant receptor VEGFR-1, seven extracellular domains fused to the Fc domain of human IgG (R&D Systems, cat No 321-FL) (human) (UniProt P17948); assay: competition ELISA, residual binding of PlGF (5 ng/ml) to coated VEGFR-1-Fc, peptide 780 nM
[5] = target: human recombinant receptor VEGFR-1, seven extracellular domains fused to the Fc domain of human IgG (R&D Systems, cat No 321-FL) (human) (UniProt P17948); assay: competition ELISA, residual binding of PlGF (5 ng/ml) to coated VEGFR-1-Fc, peptide 50000 nM
[6] = target: human recombinant receptor VEGFR-1, seven extracellular domains fused to the Fc domain of human IgG (R&D Systems, cat No 321-FL) (human) (UniProt P17948); assay: competition ELISA, residual binding of VEGF-A (5 ng/ml) to coated VEGFR-1-Fc, peptide 780 nM
[7] = target: human recombinant receptor VEGFR-1, seven extracellular domains fused to the Fc domain of human IgG (R&D Systems, cat No 321-FL) (human) (UniProt P17948); assay: competition ELISA, residual binding of VEGF-A (5 ng/ml) to coated VEGFR-1-Fc, peptide 12500 nM
[8] = target: human recombinant receptor VEGFR-1, seven extracellular domains fused to the Fc domain of human IgG (R&D Systems, cat No 321-FL) (human) (UniProt P17948); assay: competition ELISA, residual binding of PlGF (5 ng/ml) to coated VEGFR-1-Fc, peptide 6250 nM
[9] = target: human recombinant receptor VEGFR-1, seven extracellular domains fused to the Fc domain of human IgG (R&D Systems, cat No 321-FL) (human) (UniProt P17948); assay: competition ELISA, residual binding of PlGF (5 ng/ml) to coated VEGFR-1-Fc, peptide 1560 nM
[10] = target: human recombinant receptor VEGFR-1, seven extracellular domains fused to the Fc domain of human IgG (R&D Systems, cat No 321-FL) (human) (UniProt P17948); assay: competition ELISA, residual binding of VEGF-A (5 ng/ml) to coated VEGFR-1-Fc, peptide 6250 nM
[11] = target: human recombinant receptor VEGFR-1, seven extracellular domains fused to the Fc domain of human IgG (R&D Systems, cat No 321-FL) (human) (UniProt P17948); assay: competition ELISA, residual binding of PlGF (5 ng/ml) to coated VEGFR-1-Fc, peptide 25000 nM
[12] = target: human recombinant receptor VEGFR-1, seven extracellular domains fused to the Fc domain of human IgG (R&D Systems, cat No 321-FL) (human) (UniProt P17948); assay: competition ELISA, residual binding of PlGF (5 ng/ml) to coated VEGFR-1-Fc, peptide 3125 nM
[13] = target: human recombinant receptor VEGFR-1, seven extracellular domains fused to the Fc domain of human IgG (R&D Systems, cat No 321-FL) (human) (UniProt P17948); assay: competition ELISA, residual binding of VEGF-A (5 ng/ml) to coated VEGFR-1-Fc, peptide 3125 nM
[14] = target: human recombinant receptor VEGFR-1, seven extracellular domains fused to the Fc domain of human IgG (R&D Systems, cat No 321-FL) (human) (UniProt P17948); assay: competition ELISA, residual binding of VEGF-A (5 ng/ml) to coated VEGFR-1-Fc, peptide 50000 nM

Chain of human recombinant receptor VEGFR-1, seven extracellular domains fused to the Fc domain of human IgG (R&D Systems, cat No 321-FL) (human) (P17948 27-758): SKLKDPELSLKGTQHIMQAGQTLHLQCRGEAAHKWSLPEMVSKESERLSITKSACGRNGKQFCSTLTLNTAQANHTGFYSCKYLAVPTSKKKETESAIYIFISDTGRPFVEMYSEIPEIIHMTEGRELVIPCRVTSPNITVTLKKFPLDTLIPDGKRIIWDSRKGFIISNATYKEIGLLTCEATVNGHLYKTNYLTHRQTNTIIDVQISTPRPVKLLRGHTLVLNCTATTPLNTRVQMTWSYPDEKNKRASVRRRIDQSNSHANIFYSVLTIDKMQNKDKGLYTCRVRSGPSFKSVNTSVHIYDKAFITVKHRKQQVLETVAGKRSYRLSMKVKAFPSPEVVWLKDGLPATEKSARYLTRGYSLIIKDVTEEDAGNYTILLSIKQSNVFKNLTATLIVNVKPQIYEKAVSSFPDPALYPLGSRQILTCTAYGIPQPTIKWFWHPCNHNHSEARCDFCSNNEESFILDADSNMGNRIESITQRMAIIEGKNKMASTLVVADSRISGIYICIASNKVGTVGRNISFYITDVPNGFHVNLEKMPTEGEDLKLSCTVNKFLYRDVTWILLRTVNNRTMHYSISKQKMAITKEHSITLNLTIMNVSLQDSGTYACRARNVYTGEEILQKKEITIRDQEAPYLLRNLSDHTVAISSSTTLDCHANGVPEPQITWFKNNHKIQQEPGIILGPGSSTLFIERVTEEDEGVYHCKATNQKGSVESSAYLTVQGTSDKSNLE

binding % [1]: 93.4% | binding % [2]: 87.2% | binding % [3]: 103% | binding % [4]: 98.9% | binding % [5]: 90.2% | binding % [6]: 100% | binding % [7]: 100% | binding % [8]: 93.8% | binding % [9]: 102% | binding % [10]: 91.4% | binding % [11]: 88.5% | binding % [12]: 99.5% | binding % [13]: 95.2% | binding % [14]: 87.9%
Substance: control peptide (PC), (S-Ser)-(S-Ala)-(S-Cha) tripeptide with a tetrameric structure identical to the structure of the iVR1 peptides
